In the supplement of paper PMC7877785:
± gives the uncertainty stated by the source.

Assay: self-splicing fitness, log relative to wild type (ln ratio); higher = more splicing; Tetrahymena group I intron in knt gene, E. coli kanamycin selection, DiMSum; sequences stand for … in CUCUCU…GGAGGGAAAAGUUAUCAGGCAUGCACCUGGUAGCUAGUCUUUAAACCAAUAGAUUGCAUCGGUUUAAAAGGCAAGACCGUCAAAUUGCGGGAAAGGGGUCAACAGCCGUUCAGUACCAAGUCUCAGGGGAAACUUUGAGAUGGCCUUGCAAAGGGUAUGGUAAUAAGCUGACGGACAUGGUCCUAACCACGCAGCCAAGUCCUAAGUCAACAGAUCUUCUGUUGAUAUGGAUGCAGUUCACAGACUAAAUGUCGGUCGGGGAAGAUGUAUUCUUCUCAUAAGAUAUAGUCGGACCUCUCCUUAAUGGGAGCUAGCGGAUGAAGUGAUGCAACACUGGAGCCGCUGGGAACUAAUUUGUAUGCGAAAGUAUAUUGAUUAGUUUUGGAGUACUCGUGGUCG
How it was run: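 Fitness was computed with DiMSum as the error-weighted combination of replicate fold changes, kanamycin versus none, each normalised to wild type. The library randomised all eight intron nucleotides of the P1ex region, with the intron placed in the knt kanamycin-resistance gene on pET-22b(+) in E. coli BL21(DE3). Six replicate transformations were grown overnight at 37°C or 30°C on LB agar with or without 25 μg/mL kanamycin, plus 100 μg/mL carbenicillin, 50 μM IPTG and 0.2% rhamnose. Pooled colonies were amplicon-sequenced on an Illumina HiSeq 2500.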

Row | Sequence | self-splicing fitness (ln) (30 °C) | self-splicing fitness (ln) (37 °C)
1 | CCGCAGCAAUAUUACGUCUU | -3.69 ± 0.37 | -3.07 ± 0.24
2 | CUUUAGCAAUAUUACGUGCA | -2.93 ± 0.23 | -2.75 ± 0.25
3 | GACAAGCAAUAUUACGAACG | -1.55 ± 0.13 | -0.997 ± 0.22
4 | UUAAAGCAAUAUUACGAGCG | -0.119 ± 0.086 | 0.287 ± 0.12
5 | UGAAAGCAAUAUUACGCAGC |  | -1.62 ± 0.22
6 | GACAAGCAAUAUUACGAGCC | -1.08 ± 0.18 | -0.366 ± 0.15
7 | GGACAGCAAUAUUACGCGUG | -1.17 ± 0.065 | -0.234 ± 0.074
8 | UCGCAGCAAUAUUACGCCCA | -0.827 ± 0.19 | 0.0722 ± 0.18
9 | GUAAAGCAAUAUUACGGCGC | 0.572 ± 0.13 | -0.000459 ± 0.14
10 | CAUUAGCAAUAUUACGCUCU | -2.64 ± 0.2 | -1.43 ± 0.22
11 | AUGCAGCAAUAUUACGACAG | -0.0726 ± 0.086 | -0.339 ± 0.16
12 | GGGCAGCAAUAUUACGGUAC | -1.73 ± 0.097 | -0.144 ± 0.1
13 | GGUGAGCAAUAUUACGUCUU | -0.609 ± 0.2 | 0.239 ± 0.25
14 | CUAUAGCAAUAUUACGGGUU | -3.13 ± 0.23 | -1.38 ± 0.19
15 | UAUGAGCAAUAUUACGACGC |  | -1.38 ± 0.32
16 | UUCGAGCAAUAUUACGUCUU | -2.89 ± 0.31 | -1.69 ± 0.39
17 | AUUAAGCAAUAUUACGGGGU | -4.11 ± 0.24 | -2.83 ± 0.2
18 | GAUGAGCAAUAUUACGCUUG | -3.15 ± 0.39 | -1.07 ± 0.3
19 | GGUGAGCAAUAUUACGGCAU | -1.66 ± 0.25 | -1.05 ± 0.28
20 | UUAGAGCAAUAUUACGCGCG | -0.351 ± 0.16 | 0.871 ± 0.18
21 | UGCUAGCAAUAUUACGGUGU | -3.16 ± 0.14 | -2.38 ± 0.19
22 | UAGGAGCAAUAUUACGUGAU | -3.75 ± 0.35 | -1.44 ± 0.3
23 | UCGCAGCAAUAUUACGUGAG | -0.263 ± 0.042 | -0.325 ± 0.063
24 | CGCAAGCAAUAUUACGUUCG | -1.86 ± 0.069 | -0.23 ± 0.082
25 | AGUAAGCAAUAUUACGACGG | -3.42 ± 0.27 | -1.94 ± 0.2
26 | ACAAAGCAAUAUUACGUUAA | -2.91 ± 0.17 | -1.32 ± 0.12

Row | Sequence | self-splicing fitness (ln) (30 °C) | self-splicing fitness (ln) (37 °C)
27 | CGACAGCAAUAUUACGUUCA | -0.308 ± 0.054 | 0.198 ± 0.087
28 | GAUCAGCAAUAUUACGAGAG | -1.7 ± 0.082 | -0.506 ± 0.082
29 | CCGUAGCAAUAUUACGCCGU | -3 ± 0.44 | -2.16 ± 0.27
30 | CGCGAGCAAUAUUACGAGCA | -1.27 ± 0.13 | -0.102 ± 0.18
31 | CAUUAGCAAUAUUACGAUCG | 0.173 ± 0.082 | 0.274 ± 0.12
32 | GUCCAGCAAUAUUACGCAUA | -0.663 ± 0.091 | -0.0806 ± 0.094
33 | AGCAAGCAAUAUUACGUUAA | -3.3 ± 0.17 | -1.68 ± 0.1
34 | CUUGAGCAAUAUUACGUGCA | -3.2 ± 0.29 | -1.94 ± 0.25
35 | GCCCAGCAAUAUUACGUAGA | -0.69 ± 0.052 | 0.0571 ± 0.064
36 | ACCAAGCAAUAUUACGGUCU | -2.13 ± 0.08 | -0.69 ± 0.066
37 | CCCCAGCAAUAUUACGACUU | -3.29 ± 0.13 | -3 ± 0.22
38 | AGUGAGCAAUAUUACGGCCG | -3.46 ± 0.29 | -1.59 ± 0.24
39 | UUGCAGCAAUAUUACGGCUU | 0.193 ± 0.069 | 0.35 ± 0.095
40 | CGAGAGCAAUAUUACGAUGC |  | -1.63 ± 0.35
41 | AGUCAGCAAUAUUACGUACU | -1.92 ± 0.13 | -0.881 ± 0.13
42 | GGCUAGCAAUAUUACGCGCC | -3.69 ± 0.34 | -2.17 ± 0.38
43 | AGUAAGCAAUAUUACGGUGU | -2.92 ± 0.14 | -2.44 ± 0.16
44 | GGCGAGCAAUAUUACGGUAU | -2.08 ± 0.13 | -1.04 ± 0.17
45 | GAUAAGCAAUAUUACGCAAA | -1.8 ± 0.16 | -1.49 ± 0.2
46 | UUCGAGCAAUAUUACGGCGG | -1.3 ± 0.095 | -0.639 ± 0.12
47 | UCCCAGCAAUAUUACGCGGG | -2.66 ± 0.12 | -3.36 ± 0.18
48 | CAAAAGCAAUAUUACGGGCU | -3.65 ± 0.23 | -2.57 ± 0.21
49 | GGAUAGCAAUAUUACGUGCU | -1.26 ± 0.085 | -1.21 ± 0.12
50 | GUUGAGCAAUAUUACGACGC | -1.95 ± 0.22 | 1.05 ± 0.26
51 | GCUGAGCAAUAUUACGUGAU | -1.02 ± 0.1 | -1.13 ± 0.14
52 | UGCAAGCAAUAUUACGUAUA | -2.49 ± 0.18 | -0.379 ± 0.12

Row | Sequence | self-splicing fitness (ln) (30 °C) | self-splicing fitness (ln) (37 °C)
53 | GUAGAGCAAUAUUACGCCCC | -1.39 ± 0.19 | -0.63 ± 0.28
54 | UUACAGCAAUAUUACGAGAA | -1.83 ± 0.2 | -1.59 ± 0.2
55 | GGUCAGCAAUAUUACGGGAU | -1.12 ± 0.16 | -2.85 ± 0.38
56 | AGGCAGCAAUAUUACGUGGU | -3.88 ± 0.14 | -1.54 ± 0.1
57 | GCCAAGCAAUAUUACGUGCU | -3.04 ± 0.11 | -1.56 ± 0.092
58 | AACAAGCAAUAUUACGUUCA | -1.41 ± 0.053 | -0.805 ± 0.063
59 | UUCGAGCAAUAUUACGCUAA | -2.91 ± 0.29 | -1.61 ± 0.17
60 | AAGCAGCAAUAUUACGGUCA | -1.19 ± 0.088 | 0.242 ± 0.1
61 | AUCUAGCAAUAUUACGUGCG | -1.47 ± 0.21 | -0.647 ± 0.17
62 | GGUAAGCAAUAUUACGUCCA | -0.363 ± 0.14 | -0.817 ± 0.16
63 | CGUUAGCAAUAUUACGCAAG | -1.97 ± 0.13 | -1.18 ± 0.14
64 | CUCCAGCAAUAUUACGCCGA | -2.27 ± 0.42 | 
65 | CAAGAGCAAUAUUACGGCAG | -1.54 ± 0.091 | -0.926 ± 0.13
66 | UGUGAGCAAUAUUACGAGUG | -1.4 ± 0.071 | -1.16 ± 0.08
67 | AGUAAGCAAUAUUACGACCG | -1.03 ± 0.17 | -0.428 ± 0.2
68 | GCCAAGCAAUAUUACGUGUC | -1.62 ± 0.06 | -0.848 ± 0.075
69 | AUACAGCAAUAUUACGGAUA | -2.52 ± 0.14 | -2.38 ± 0.17
70 | CGGCAGCAAUAUUACGACUG | -1.74 ± 0.24 | -0.611 ± 0.26
71 | UAUCAGCAAUAUUACGGACU | -0.533 ± 0.058 | -0.127 ± 0.071
72 | UUCGAGCAAUAUUACGGGUC | -3.03 ± 0.38 | -2.89 ± 0.43
73 | CCAUAGCAAUAUUACGAUUG | -1.17 ± 0.07 | -0.642 ± 0.083
74 | CAGGAGCAAUAUUACGCAUA |  | -1.73 ± 0.33
75 | CAUUAGCAAUAUUACGUCGA | -2.75 ± 0.14 | -2.05 ± 0.12
76 | UGAAAGCAAUAUUACGAAGU | -3.76 ± 0.21 | -2.96 ± 0.23
